From CN101248088A (LILLY CO ELI, dated 2008)

T1: 人IL-23 (human IL-23, p19/p40 heterodimer) (human, UniProt P29460 23-328)
T1 construct: Bought human IL-23 (R&D Systems); also called hIL-23; 成熟IL-23
T1 sequence 1: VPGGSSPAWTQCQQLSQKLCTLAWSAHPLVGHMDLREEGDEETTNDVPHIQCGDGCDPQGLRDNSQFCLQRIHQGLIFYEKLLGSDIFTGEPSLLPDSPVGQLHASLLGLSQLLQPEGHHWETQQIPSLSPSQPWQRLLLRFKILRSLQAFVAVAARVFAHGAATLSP
T1 sequence 2: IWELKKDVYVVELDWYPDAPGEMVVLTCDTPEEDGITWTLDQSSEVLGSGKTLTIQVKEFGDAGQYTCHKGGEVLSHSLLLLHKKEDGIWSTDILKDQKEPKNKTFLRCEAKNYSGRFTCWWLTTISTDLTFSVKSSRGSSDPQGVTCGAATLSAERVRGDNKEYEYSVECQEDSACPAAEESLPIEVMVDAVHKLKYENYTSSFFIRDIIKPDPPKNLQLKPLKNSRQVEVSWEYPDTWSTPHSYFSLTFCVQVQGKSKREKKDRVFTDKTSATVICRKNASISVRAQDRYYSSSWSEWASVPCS


What was measured:
[1] = biological target: 人IL-23 (human IL-23, p19/p40 heterodimer) (human) (UniProt P29460); experiment: cell-based or functional assay
[2] = biological target: 人IL-23 (human IL-23, p19/p40 heterodimer) (human) (UniProt P29460); experiment: SPR (BIAcore), antibody captured on protein A CM5 chip, human IL-23 in flow, HBS-EP pH 7.4, 25 °C
[3] = biological target: T1, 人IL-23 (human IL-23, p19/p40 …); experiment: SPR (BIAcore)
[4] = biological target: T1, 人IL-23 (human IL-23, p19/p40 …); experiment: cell-based or functional assay

Row | IC50, 小鼠脾细胞测定法 (IL-23-stimulated IL-17 secretion of mouse splenocytes) [1] [nM] | Kd [2] [nM] | koff [2] [s⁻¹] | kon [2] [M⁻¹ s⁻¹] | Kd [3] [nM] | IC50, 小鼠脾细胞测定法 [4] [nM] | IC50, 小鼠脾细胞测定法 (IL-23-stimulated IL-17 secretion of mouse splenocytes) [4] [nM] | Molecule
1 | 2.8 | 21.4 | 0.000768 | 36800 |  |  |  | MAB1290 (小鼠抗人IL-23单克隆抗体, 安迪生物科技 R&D Systems) (antibody)
2 |  |  |  |  | < 0.16 | < 0.02 | 0.002 | MAbQF20 (antibody, V domains shown, Humanised antibody) VH: QVQLVQSGAEVKKPGASVKVSCKVSGKTFWSYGINWVRQAPGKGLEWMGYIYIGTGYTEPNPKYKGRVTMTEDTSTDTAYMELSSLRSEDTAVYYCATIGGYYGNFADWGQGTTVTVSS VL: DVVMTQSPLSLPVTLGQPASISCRSSQSLLISGGKTYLNWFQQRPGQSPRRLIYLVSKLDQGVPDRFSGSGSGTDFTLKISRVEAEDVGVYYCWQGTYFPLTFGQGTKLEIK
3 |  |  |  |  | < 0.16 | < 0.02 | 0.002 | MAbQF37 (antibody, V domains shown, Humanised antibody) VH: QVQLVQSGAEVKKPGASVKVSCKVSGKTFWSYGINWVRQAPGKGLEWMGYIYIGTGYTEPNPKYKGRVTMTEDTSTDTAYMELSSLRSEDTAVYYCATIGGYYGNFDQWGQGTTVTVSS VL: DVVMTQSPLSLPVTLGQPASISCRSSQSLLISGGKTYLNWFQQRPGQSPRRLIYLVSKLDQGVPDRFSGSGSGTDFTLKISRVEAEDVGVYYCWQGTYFPLTFGQGTKLEIK
